Results reported in publication PMC2811003 (Nucleic Acids Research, 2009).
Positions count from the first letter of the chain named.

Assays:
crystal structure = biological target: the molecule itself; assay: crystal structure
[1] = biological target: T1, His-tagged Neisseria gonorrhoeae PriA (Neisseria gonorrhoeae, UniProt Q5F6V8 1-729); assay: pull-down
T1 sequence (looked up): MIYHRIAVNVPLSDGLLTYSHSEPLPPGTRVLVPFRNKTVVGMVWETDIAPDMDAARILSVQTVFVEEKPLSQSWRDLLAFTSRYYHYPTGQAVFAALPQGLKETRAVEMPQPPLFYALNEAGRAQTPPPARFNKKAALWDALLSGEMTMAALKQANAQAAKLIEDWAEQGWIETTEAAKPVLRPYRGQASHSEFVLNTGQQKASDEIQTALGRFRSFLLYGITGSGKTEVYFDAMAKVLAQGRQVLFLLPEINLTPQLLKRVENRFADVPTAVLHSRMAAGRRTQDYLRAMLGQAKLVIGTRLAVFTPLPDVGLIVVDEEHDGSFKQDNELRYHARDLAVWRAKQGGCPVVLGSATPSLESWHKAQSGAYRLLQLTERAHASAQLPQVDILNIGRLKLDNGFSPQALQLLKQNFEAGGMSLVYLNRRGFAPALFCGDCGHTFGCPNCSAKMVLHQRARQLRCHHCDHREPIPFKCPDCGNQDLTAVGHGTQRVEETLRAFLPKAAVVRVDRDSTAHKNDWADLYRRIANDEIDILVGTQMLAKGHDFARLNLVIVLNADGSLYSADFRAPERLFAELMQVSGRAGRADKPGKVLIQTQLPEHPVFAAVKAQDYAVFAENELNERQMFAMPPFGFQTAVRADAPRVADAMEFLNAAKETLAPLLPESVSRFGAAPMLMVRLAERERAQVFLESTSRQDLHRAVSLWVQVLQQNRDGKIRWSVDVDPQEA

[2] = biological target: T2, Neisseria gonorrhoeae PriA (Neisseria gonorrhoeae, UniProt Q5F6V8 1-729); assay: fluorescence polarisation
T2 sequence: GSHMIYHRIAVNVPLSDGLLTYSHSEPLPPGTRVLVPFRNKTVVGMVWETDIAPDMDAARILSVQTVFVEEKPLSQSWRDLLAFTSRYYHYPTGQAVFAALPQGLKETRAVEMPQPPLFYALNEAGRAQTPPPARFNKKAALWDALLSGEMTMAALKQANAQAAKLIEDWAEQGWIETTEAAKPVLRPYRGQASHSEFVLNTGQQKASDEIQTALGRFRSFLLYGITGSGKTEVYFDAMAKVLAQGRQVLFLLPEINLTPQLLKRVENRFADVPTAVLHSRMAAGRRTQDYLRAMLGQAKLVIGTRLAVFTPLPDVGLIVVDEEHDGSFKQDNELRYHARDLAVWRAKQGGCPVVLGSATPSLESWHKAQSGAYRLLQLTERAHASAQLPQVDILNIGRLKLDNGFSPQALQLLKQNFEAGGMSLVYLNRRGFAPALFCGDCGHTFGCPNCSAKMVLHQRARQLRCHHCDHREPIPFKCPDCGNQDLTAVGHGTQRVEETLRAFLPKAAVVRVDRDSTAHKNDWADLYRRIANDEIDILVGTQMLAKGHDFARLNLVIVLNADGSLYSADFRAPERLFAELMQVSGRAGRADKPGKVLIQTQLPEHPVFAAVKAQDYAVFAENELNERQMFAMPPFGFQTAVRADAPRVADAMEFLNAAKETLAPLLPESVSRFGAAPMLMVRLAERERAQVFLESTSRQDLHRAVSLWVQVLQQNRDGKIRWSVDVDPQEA

PriB wild type = biological target: T3, PriB wild type (Neisseria gonorrhoeae FA1090, UniProt Q5F924 1-100); assay: fluorescence anisotropy
T3 sequence: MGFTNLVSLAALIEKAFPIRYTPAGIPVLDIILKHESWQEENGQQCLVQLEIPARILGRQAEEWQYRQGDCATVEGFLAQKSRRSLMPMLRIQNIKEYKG

PriB E41A = biological target: T4, PriB E41A (Neisseria gonorrhoeae FA1090, UniProt Q5F924 1-100, E41A); assay: fluorescence anisotropy
T4 sequence: T3 sequence with E41A

PriB Y21A = biological target: T5, PriB Y21A (Neisseria gonorrhoeae FA1090, UniProt Q5F924 1-100, Y21A); assay: fluorescence anisotropy
T5 sequence: T3 sequence with Y21A

B1: Neisseria gonorrhoeae PriB (natural protein)
chain: GSHMGFTNLVSLAALIEKAFPIRYTPAGIPVLDIILKHESWQEENGQQCLVQLEIPARILGRQAEEWQYRQGDCATVEGFLAQKSRRSLMPMLRIQNIKEYKG
For B1, the “stoichiometry N” value (crystal structure) was 2 and the binding result [1] was “binds”.

B2: FITC-labeled Neisseria gonorrhoeae PriB (natural protein)
chain: B1 chain
modifications: FITC (fluorescein isothiocyanate) label, 0.34 FITC per PriB dimer; labeled residue not stated
B2 showed a Kd [2] of 137 nM.

AAGCACAATTACCCACGC (ssDNA) [18-base fluoro-ssDNA] gave a Kd (PriB wild type) of 662 ± 37 nM.

Work on GCCGTGATCACCAATGCAGATTGACGAACCTTTGCC (ssDNA) [36-base fluoro-ssDNA] yielded a Kd (PriB wild type) of 475 ± 20 nM, a Kd (PriB E41A) of 139 ± 26 nM and a Kd (PriB Y21A) of 641 ± 41 nM.

For GCCGTGATCACCAATGCAGATTGACGAACCTTTGCTCCAGTAACC (ssDNA) [45-base fluoro-ssDNA], the Kd (PriB wild type) was 1020 ± 34 nM.
